Source: patent publication US20090004214A1 (COMMISSARIAT A L ENERGIE ATOMIQUE, published 2009)
No end group written: not given here.

What was measured:
[1] = biological target: T1, HLA-DR7 molecule (DRB1*0701) (human); test: competitive ELISA, tracer YKL
T1 construct: HLA class II heterodimer

[2] = biological target: T2, HLA-DR15 molecule (DRB1*1501) (human); test: competitive ELISA, tracer A3 152-166
T2 construct: HLA class II heterodimer

[3] = biological target: T3, HLA-DR1 molecule (DRB1*0101) (human); test: competitive ELISA, tracer HA 306-318
T3 construct: HLA class II heterodimer

[4] = biological target: T4, HLA-DR4 molecule (DRB1*0401) (human); test: competitive ELISA, tracer HA 306-318
T4 construct: HLA class II heterodimer

[5] = biological target: T5, HLA-DR11 molecule (DRB1*1101) (human); test: competitive ELISA, tracer HA 306-318
T5 construct: HLA class II heterodimer

[6] = biological target: T6, HLA-DRB5 molecule (DRB5*0101) (human); test: competitive ELISA, tracer HA 306-318
T6 construct: HLA class II heterodimer

[7] = biological target: T7, HLA-DRB4 molecule (DRB4*0101) (human); test: competitive ELISA, tracer E2/E168
T7 construct: HLA class II heterodimer

[8] = biological target: T8, HLA-DRB3 molecule (DRB3*0101) (human); test: competitive ELISA, tracer LOL 191-210
T8 construct: HLA class II heterodimer

[9] = biological target: T9, HLA-DP401 molecule (DPB1*0401) (human, UniProt P20036 29-222, limits assumed); test: competitive ELISA, tracer Oxy 271-287
T9 construct: HLA class II heterodimer; also called DP*0401

[10] = biological target: T10, HLA-DP402 molecule (DPB1*0402) (human, UniProt P20036 29-222, limits assumed); test: competitive ELISA, tracer Oxy 271-287
T10 construct: HLA class II heterodimer; also called DP*0402

[11] = biological target: T11, HLA-DR13 molecule (DRB1*1301) (human); test: competitive ELISA, tracer B1 21-36
T11 construct: HLA class II heterodimer

[12] = biological target: T12, HLA-DR3 molecule (DRB1*0301) (human); test: competitive ELISA, tracer MT 2-16
T12 construct: HLA class II heterodimer

[13] = biological target: T13, HLA-DR13 molecule (DRB1*1301) (human); test: competitive ELISA, tracer B1 21-36
T13 chain 1: not shown
T13 chain 2: not shown

[14] = biological target: T13, HLA-DR13 molecule (DRB1*1301) (human); test: competitive ELISA, nonbiotinylated peptide vs its biotinylated tracer

Binder	IC50 [1] [µM]	IC50 [2] [µM]	IC50 [3] [µM]	IC50 [4] [µM]	IC50 [5] [µM]	IC50 [6] [µM]	IC50 [7] [µM]	IC50 [8] [µM]	IC50 [9] [µM]	IC50 [10] [µM]	IC50 [11] [µM]	IC50 [12] [µM]	IC50 [13] [µM]	IC50 [14] [µM]
FCFKELEGWEPDDDP (synthetic 15-mer) [survivin peptide 59-73]	9	8	3.76	58	1.84	45								
LKLDRERAKNKIAKE (synthetic 15-mer) [survivin peptide 102-116]	50		7.75		8.94	0.018								
LSVKKQFEELTLGEF (synthetic 15-mer) [survivin peptide 87-101]	0.705	4.8	0.15	6.45	2.06	6	9.8	6.8	3.67	6.39				
DPIEEHKKHSSGCAF (synthetic 15-mer) [survivin peptide 72-86]			95			6.2					11			
MGAPTLPPAWQPFLK (synthetic 15-mer) [survivin peptide 1-15]		80	10.8		0.063	8			9.2	6.93				
FEELTLGEFLKLDRE (synthetic 15-mer) [survivin peptide 93-107]	2.79	0.612	0.128	5.5	0.548	0.529		45	0.02	0.067	7.8			
STFKNWPFLEGCACT (synthetic 15-mer) [survivin peptide 20-34]	20			5.2			5.5							
ISTFKNWPFLEGCAC (synthetic 15-mer) [survivin peptide 19-33]	0.748	0.081	0.01	0.615	0.147	3.78	3.12		0.032		9.5			
QPFLKDHRISTFKNW (synthetic 15-mer) [survivin peptide 11-25]	8	0.022	6	45	0.329	2.26	75	3.67	33	25	2.41	65		
TERVRLVTRHIYNREE (not fully specified) [B1 21-36 peptide (nonbiotinylated)]													0.609	0.8
KNWPFLEGCACTPER (synthetic 15-mer) [survivin peptide 23-37]	60		0.071	5.2	37	3.42				3.7				
PTLPPAWQPFLKDHR (synthetic 15-mer) [survivin peptide 4-18]			45			5.48			9	3.59	40			
PAWQPFLKDHRISTF (synthetic 15-mer) [survivin peptide 8-22]	9.39	5.2	6.57	46		2.19	29	8.72	21	10.5	2.31	16		
AGFIHCPTENEPDLA (synthetic 15-mer) [survivin peptide 41-55]	3.73	7	2.31	5	1.15	3.38	0.328	10						
GEFLKLDRERAKNKI (synthetic 15-mer) [survivin peptide 99-113]	6.46	1.2	0.048	2.13	0.04	0.022	22		40		9.17	4.67		
KELEGWEPDDDPIEE (synthetic 15-mer) [survivin peptide 62-76]		65						29						
KQFEELTLGEFLKLD (synthetic 15-mer) [survivin peptide 91-105]	0.056	3.16	0.012	1.59	2.35	0.145		30	0.011	0.012				
AKKVRRAIEQLAAMD (synthetic 15-mer) [survivin peptide 128-142]	1.34	0.284					1.8		13	20		12		
KKQFEELTLGEFLKL (synthetic 15-mer) [survivin peptide 90-104]	0.14	7.5	0.04	0.748	2.35	0.28		48	0.048	0.019				
ERMAEAGFIHCPTEN (synthetic 15-mer) [survivin peptide 36-50]	17		2.55	17	5.59	3.79	49		3.62	3.17				
HRISTFKNWPFLEGC (synthetic 15-mer) [survivin peptide 17-31]	0.018	0.003	0.019	9.2	0.247	0.302	7.5		0.04	0.029	0.735			
CAFLSVKKQFEELTL (synthetic 15-mer) [survivin peptide 84-98]	0.179	0.574	2.83	19	0.01	1.77	1.33	11.8	0.167	0.113	0.845	2.57		
KEFEETAKKVRRAIE (synthetic 15-mer) [survivin peptide 122-136]	20	1.2	5.56		0.31	0.447					0.995	5.81		
QCFFCFKELEGWEPD (synthetic 15-mer) [survivin peptide 56-70]	13	3	1.6		0.363	20		12						
PDLAQCFFCFKELEG (synthetic 15-mer) [survivin peptide 52-66]	6.67	2.25	4.1	22	0.092	5.35		12.6		4.58	23	11.8		
LTLGEFLKLDRERAK (synthetic 15-mer) [survivin peptide 96-110]	5.64	0.49	0.018	1.67	0.007	0.103	3.6		2.92	0.62	0.302	5.48		
